Assay results reported in patent publication US20180016312A1 (Pieris, published 2018).

T1: human angiopoietin-2 (human, UniProt O15123 19-496, limits assumed)
T1 construct: Bought recombinant protein with a His tag (detected by anti-HIS-tag antibody); also called human Ang-2; hAng-2
T1 sequence (looked up): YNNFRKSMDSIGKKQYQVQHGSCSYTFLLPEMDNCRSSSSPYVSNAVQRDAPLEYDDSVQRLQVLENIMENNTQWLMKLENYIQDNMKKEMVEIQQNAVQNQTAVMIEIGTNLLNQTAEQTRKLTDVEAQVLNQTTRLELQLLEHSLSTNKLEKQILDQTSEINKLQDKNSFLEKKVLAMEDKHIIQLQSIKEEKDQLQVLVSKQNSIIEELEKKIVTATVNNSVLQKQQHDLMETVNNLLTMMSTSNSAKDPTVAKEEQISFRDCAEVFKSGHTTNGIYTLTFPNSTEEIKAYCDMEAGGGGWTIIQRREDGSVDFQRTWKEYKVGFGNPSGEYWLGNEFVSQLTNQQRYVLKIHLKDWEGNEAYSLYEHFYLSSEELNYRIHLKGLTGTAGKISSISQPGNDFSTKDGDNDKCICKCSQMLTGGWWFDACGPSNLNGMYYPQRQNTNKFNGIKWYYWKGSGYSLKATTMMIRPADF

T2: human angiopoietin-1 (human, UniProt Q15389 20-498, limits assumed)
T2 construct: Bought recombinant protein; also called human Ang-1; hAng-1
T2 sequence (looked up): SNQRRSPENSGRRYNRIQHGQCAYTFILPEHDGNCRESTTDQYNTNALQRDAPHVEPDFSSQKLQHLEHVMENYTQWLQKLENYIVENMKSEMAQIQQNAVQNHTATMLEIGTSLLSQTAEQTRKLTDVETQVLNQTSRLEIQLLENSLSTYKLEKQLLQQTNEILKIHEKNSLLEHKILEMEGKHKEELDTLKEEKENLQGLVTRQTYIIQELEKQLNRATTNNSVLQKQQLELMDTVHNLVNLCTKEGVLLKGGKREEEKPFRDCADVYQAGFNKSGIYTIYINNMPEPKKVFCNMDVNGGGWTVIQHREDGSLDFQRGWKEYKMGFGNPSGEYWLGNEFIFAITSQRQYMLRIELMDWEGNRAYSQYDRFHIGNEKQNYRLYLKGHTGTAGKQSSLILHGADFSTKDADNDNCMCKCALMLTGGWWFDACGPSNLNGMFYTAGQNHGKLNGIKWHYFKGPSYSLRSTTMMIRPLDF

T3: mouse angiopoietin-2 (mouse, UniProt O35608 19-496, limits assumed)
T3 construct: Bought recombinant protein; also called mouse Ang-2; mAng-2
T3 sequence (looked up): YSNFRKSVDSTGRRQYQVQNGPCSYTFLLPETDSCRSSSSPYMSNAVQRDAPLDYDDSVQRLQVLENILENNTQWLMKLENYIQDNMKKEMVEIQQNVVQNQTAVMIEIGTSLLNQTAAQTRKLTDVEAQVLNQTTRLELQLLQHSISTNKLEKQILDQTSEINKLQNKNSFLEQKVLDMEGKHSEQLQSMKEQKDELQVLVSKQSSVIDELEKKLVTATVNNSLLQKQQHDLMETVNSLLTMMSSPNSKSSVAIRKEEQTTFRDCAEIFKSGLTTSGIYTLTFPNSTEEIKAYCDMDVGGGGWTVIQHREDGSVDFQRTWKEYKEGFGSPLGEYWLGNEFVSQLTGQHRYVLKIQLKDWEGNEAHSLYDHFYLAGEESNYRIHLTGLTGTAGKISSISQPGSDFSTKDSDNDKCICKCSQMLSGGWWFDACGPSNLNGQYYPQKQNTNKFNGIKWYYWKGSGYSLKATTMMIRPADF


What was measured:
[1] = biological target: T1, human angiopoietin-2; experiment: SPR Biacore T200; biotinylated SEQ ID NO: 16 captured, hAng-2 analyte
Experimental: (§1) In the SPR affinity assay, biotinylated muteins and negative control were captured on a sensor chip CAP using the Biotin CAPture Kit (GE Healthcare): Sensor Chip CAP is pre-immobilized with an ssDNA oligo. Undiluted Biotin CAPture Reagent (streptavidin conjugated with the complementary ss-DNA oligo) was applied at a flow rate of 2 μl/min for 300 s. Subsequently, 0.02 μg/mL of biotinylated muteins or negative control were applied for 300 s at a flow rate of 5 μl/min. […] The reference channel was loaded with Biotin CAPture Reagent only.
(§2) Applying a flow rate of 30 μL/min, a multi cycle kinetics approach was used with a sample contact time of 180 s and a dissociation time of 4600 s. All measurements were performed at 25° C. […] Data were evaluated with Biacore T200 Evaluation software (V 1.0). Double referencing was used. A 1:1 Binding model was used to fit the raw data even though the analyte was known to be a multimer.

[2] = biological target: T1, human angiopoietin-2; experiment: cell-based or functional assay
[3] = biological target: T2, human angiopoietin-1; experiment: competition ELISA format (FIG. 2)
Experimental: In the following detailed experimental protocol, incubation and washing steps were performed as described above in the competition ELISA protocol (see Example 5).

[4] = biological target: T1, human angiopoietin-2; experiment: ELISA; Ang-2 coated, mutein detected by anti-Streptag-HRP
Experimental: Binding of muteins was tested by a sandwich ELISA assay.
20 μl of serially diluted muteins were incubated in PBS-T/BSA for 1h at room temperature (RT).
The residual supernatants were discarded and 20 μl HRP-labeled anti-Streptag antibody was added at a predetermined optimal concentration in PBS-T/BSA and incubated for 1 h at RT. After washing, 20 μl fluorogenic HRP substrate (QuantaBlu, Thermo) was added to each well, and the reaction was allowed to proceed for 15 to 60 minutes. The fluorescence intensity of every well on the plate was read using a fluorescence microplate reader (Tecan or Molecular Devices). Curve fitting was performed using GraphPad Prism 4 software.

[5] = biological target: T1, human angiopoietin-2; experiment: SPR Biacore T200; upper end of the range, tied to SEQ ID NO: 7 by Table 3
Experimental: as §1, §2

[6] = biological target: T1, human angiopoietin-2; experiment: SPR Biacore T200; biotinylated mutein captured, hAng-2 analyte, 1:1 model, 25 C
Experimental: as §1, §2

[7] = biological target: T1, human angiopoietin-2; experiment: competition ELISA; 0.5 nM hAng-2 pre-incubated with binder, free hAng-2 captured on hTie-2 Fc (competitor)
Experimental: All incubation steps were performed with shaking at 300 rpm, and the plate was washed after each incubation step with 80 μl PBS-T buffer (PBS, 0.05% Tween 20) for five times using a Biotek EL405 select CW washer (Biotek). In the first step, a 384 well plate was directly coated with 20 μl of soluble human hTie-2 Fc (Reliatech) at a concentration of […] in PBS over night at 4 ° C. After washing, h Tie-2 Fc coated wells were blocked with 60 μl PBS-T/BSA (2% BSA in PBS containing 0.1% Tween 20) for 1 h at room temperature.
Curve fitting was performed using GraphPad Prism 4 software.

[8] = biological target: T1, human angiopoietin-2; experiment: competition cell ECL; hAng-2 pre-incubated with binder, free Ang-2 captured on HEK:hTie-2 cells (competitor)
Experimental: (§3) All incubation steps were performed at room temperature, and the plate was washed after each incubation step with 80 μl PBS buffer for two times using a Biotek EL405 select CW washer (Biotek). In the first step, a 384 well plate was precoated for 5 minutes with poly D lysine and washed twice with PBS. 10⁴ HEK:hTie-2 cells per well were seeded and allowed to adhere to the surface of the wells overnight at 37° C. . After washing, cell coated wells were blocked with 60 μl PBS/Casein (2% Casein in PBS) for 1 h at room temperature.
(§4) After washing, 35 μl surfactant-free reading buffer was added to each well and the ECL signal of every well was read using a Mesoscale Discovery reader.

[9] = biological target: T3, mouse angiopoietin-2; experiment: competition cell ECL; mAng-2 pre-incubated with binder, free Ang-2 captured on HEK:hTie-2 cells (competitor)
Experimental: as §3, §4

[10] = biological target: T1, human angiopoietin-2; experiment: SPR Biacore T200; lower end of the range, tied to SEQ ID NO: 11 by Table 3
Experimental: as §1, §2

IC50 mean, LEC proliferation assay (CellTiter-Glo) [2] [nM]	binding result [3]	EC50 [4] [nM]	Kd [5] [nM]	Kd [6] [nM]	koff [6] [s⁻¹]	IC50 [7] [nM]	IC50 [8] [nM]	IC50 [9] [nM]	Kd [10] [nM]	Binder	binding result [1]
										mature hNGAL (SEQ ID NO: 16), negative control (other, Used as negative control; Biotinylated for the SPR assay; also called human lipocalin 2; human NGAL) QDSTSDLIPAPPLSKVPLQQNFQDNQFQGKWYVVGLAGNAILREDKDPQKMYATIYELKEDKSYNVTSVLFRKKKCDYWIRTFVPGCQPGEFTLGNIKSYPGLTSYLVRVVSTNYNQHAMVFFKKVSQNREYFKITLYGRTKELTSELKENFIRFSKSLGLPENHIVFPVPIDQCIDG	no binding (tested: human Ang-2 at 1-27 nM)
0.199	binds	2.1	0.2 to 1.4	1.43	0.00026	0.0619	3.6	1.23		hNGAL lipocalin mutein SEQ ID NO: 7 (designed binder, Mutein of mature hNGAL; Biotinylated with NHS-PEG4-Biotin for the SPR assay) QDSTSDLIPAPPLSKVPLQQNFQDNQFHGKWYVVGHAGNYILREDKDPEKMWATIYELKEDKSYDVTEVSFGPKKCNYRIWTFVPGSQPGEFTLGGIKSPPGDTSTLVRVVSTNYNQHAMVFFKHVLQNREFFEITLYGRTKELTSELKENFIRFSKSLGLPENHIVFPVPIDQCIDGSAWSHPQFEK	
0.169		2.3		0.21	0.00087	0.0988	4.79	1.45	0.2 to 1.4	hNGAL lipocalin mutein SEQ ID NO: 11 (designed binder, Mutein of mature hNGAL; Biotinylated with NHS-PEG4-Biotin for the SPR assay) QDSTSDLIPAPPLSKVPLQQNFQDNQFHGKWYVVGQAGNYILREDKDPVKMWATIYELKEDKSYDVTEVSFGPKKCNYRIWTFVPGSQPGEFTLGGIKSLPGGTSTLVRVVSTNYNQHAMVFFKHVLQNREFFEITLYGRTKELTSELKENFIRFSKSLGLPENHIVFPVPIDQCIDGSAWSHPQFEK	
0.078	binds	2.4		0.37	0.00013	0.0708	3.75	1.25		hNGAL lipocalin mutein SEQ ID NO: 8 (designed binder, Mutein of mature hNGAL; Biotinylated with NHS-PEG4-Biotin for the SPR assay) QDSTSDLIPAPPLSKVPLQQNFQDNQFHGKWYVVGQAGNYILREDKDPGKMWATIYELKEDKSYDVTEVSFGAKKCNYRIWTFVPGSQPGEFTLGGIKSDPGGTSTLVRVVSTNYNQHAMVFFKHVLQNREFFEITLYGRTKELTSELKENFIRFSKSLGLPENHIVFPVPIDQCIDGSAWSHPQFEK	
